Experimental data: the supplement of paper PMC7877785
± gives the uncertainty stated by the source.

Test: self-splicing fitness, log relative to wild type (ln ratio); higher = more splicing; Tetrahymena group I intron in knt gene, E. coli kanamycin selection, DiMSum; sequences stand for … in CUCUCU…GGAGGGAAAAGUUAUCAGGCAUGCACCUGGUAGCUAGUCUUUAAACCAAUAGAUUGCAUCGGUUUAAAAGGCAAGACCGUCAAAUUGCGGGAAAGGGGUCAACAGCCGUUCAGUACCAAGUCUCAGGGGAAACUUUGAGAUGGCCUUGCAAAGGGUAUGGUAAUAAGCUGACGGACAUGGUCCUAACCACGCAGCCAAGUCCUAAGUCAACAGAUCUUCUGUUGAUAUGGAUGCAGUUCACAGACUAAAUGUCGGUCGGGGAAGAUGUAUUCUUCUCAUAAGAUAUAGUCGGACCUCUCCUUAAUGGGAGCUAGCGGAUGAAGUGAUGCAACACUGGAGCCGCUGGGAACUAAUUUGUAUGCGAAAGUAUAUUGAUUAGUUUUGGAGUACUCGUGGUCG
In short: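 DiMSum derived fitness as the error-weighted combination of fold changes across replicates, kanamycin versus no kanamycin, normalised to wild type. E. coli BL21(DE3) held the library, which randomised all eight P1ex-region intron nucleotides within the knt kanamycin-resistance gene on pET-22b(+). Six replicate transformations grew overnight at 37°C or 30°C on LB agar with or without 25 μg/mL kanamycin, also containing 100 μg/mL carbenicillin, 50 μM IPTG and 0.2% rhamnose, and pooled colonies were amplicon-sequenced on an Illumina HiSeq 2500.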

| Sequence | self-splicing fitness (ln) (30 °C) | self-splicing fitness (ln) (37 °C) |
| --- | --- | --- |
| GAUCAGCAAUAUUACGGACU | -0.52 ± 0.12 | -0.894 ± 0.13 |
| AUAAAGCAAUAUUACGACCU | -0.0242 ± 0.097 | 0.381 ± 0.12 |
| AAAUAGCAAUAUUACGUAGG | -2.59 ± 0.1 | -1.96 ± 0.1 |
| UCAAAGCAAUAUUACGUUUA | -2.71 ± 0.16 | -2.51 ± 0.18 |
| GUCAAGCAAUAUUACGUAAC | -1.33 ± 0.17 | -0.545 ± 0.14 |
| UCACAGCAAUAUUACGCAAG | -2.65 ± 0.17 | -1.11 ± 0.15 |
| CCGAAGCAAUAUUACGUUAU | -3.94 ± 0.32 | -2.87 ± 0.2 |
| CCACAGCAAUAUUACGGGGU | -3.71 ± 0.098 | -2.53 ± 0.11 |
| GAAAAGCAAUAUUACGGCCC | 0.0394 ± 0.14 | 0.473 ± 0.17 |
| AUCUAGCAAUAUUACGGGUU | -3.51 ± 0.15 | -3.09 ± 0.21 |
| GAGCAGCAAUAUUACGCGCA | -0.638 ± 0.1 | 0.461 ± 0.12 |
| UAGAAGCAAUAUUACGCCCG | -0.762 ± 0.18 | 0.487 ± 0.23 |
| CCGGAGCAAUAUUACGGCUU | -0.296 ± 0.29 | -1.49 ± 0.33 |
| UCUAAGCAAUAUUACGAAAG | -2.88 ± 0.17 | -2.03 ± 0.18 |
| UGGAAGCAAUAUUACGCGCC | -3.22 ± 0.32 | -1.54 ± 0.31 |
| UCAGAGCAAUAUUACGCGAG | -2.24 ± 0.12 | -1.06 ± 0.13 |
| AUGCAGCAAUAUUACGACGC | -1.48 ± 0.11 | -1.32 ± 0.12 |
| UAGGAGCAAUAUUACGUAAG | -3.22 ± 0.16 | -2.01 ± 0.16 |
| AAUUAGCAAUAUUACGCACA | 0.0525 ± 0.13 | -0.475 ± 0.15 |
| GUCUAGCAAUAUUACGUGCA | -1.38 ± 0.096 | -0.535 ± 0.1 |
| GUAAAGCAAUAUUACGUUCG | -0.724 ± 0.061 | -0.407 ± 0.084 |

| Sequence | self-splicing fitness (ln) (30 °C) | self-splicing fitness (ln) (37 °C) |
| --- | --- | --- |
| GCGUAGCAAUAUUACGACGC | -3.7 ± 0.39 |  |
| UCUUAGCAAUAUUACGGUCU | -4.42 ± 0.42 | -2.67 ± 0.32 |
| UUGAAGCAAUAUUACGAUGA | 0.15 ± 0.075 | 0.161 ± 0.099 |
| UAUAAGCAAUAUUACGCUCC | -1.29 ± 0.24 | -1.02 ± 0.28 |
| UUGCAGCAAUAUUACGAUAC |  | -1.74 ± 0.47 |
| UAGGAGCAAUAUUACGUAAC | -4.94 ± 0.41 | -2.48 ± 0.22 |
| CUAUAGCAAUAUUACGGUAG | -2.21 ± 0.14 | -2.58 ± 0.2 |
| AAUGAGCAAUAUUACGUUGG | -3.18 ± 0.23 | -3.55 ± 0.27 |
| UUAAAGCAAUAUUACGUCAG | -0.815 ± 0.065 | 0.0256 ± 0.093 |
| GGAGAGCAAUAUUACGCGGA |  | -1.29 ± 0.34 |
| CCUAAGCAAUAUUACGUGAC | -4.32 ± 0.3 |  |
| UACUAGCAAUAUUACGCGUU | -2.33 ± 0.11 | -0.827 ± 0.1 |
| AAGAAGCAAUAUUACGGCUC | -1.19 ± 0.12 | -0.0707 ± 0.15 |
| UGGUAGCAAUAUUACGUGAC | -3.97 ± 0.27 | -1.05 ± 0.2 |
| CGCAAGCAAUAUUACGCUAG | -2.46 ± 0.16 | -2.89 ± 0.2 |
| AUGGAGCAAUAUUACGUGGU | -3.08 ± 0.17 | -1.35 ± 0.23 |
| CCCGAGCAAUAUUACGACAC | -3.41 ± 0.4 |  |
| UUCGAGCAAUAUUACGUUGU | -2.49 ± 0.18 | -2.75 ± 0.24 |
| CAGUAGCAAUAUUACGACAU | -3.226 ± 0.023 | -1.83 ± 0.036 |
| CCCCAGCAAUAUUACGCUGU | -4 ± 0.21 | -3.09 ± 0.18 |
| UGUGAGCAAUAUUACGCUAG | -3.43 ± 0.32 | -1.59 ± 0.2 |

| Sequence | self-splicing fitness (ln) (30 °C) | self-splicing fitness (ln) (37 °C) |
| --- | --- | --- |
| GGACAGCAAUAUUACGGGGU | -3.5 ± 0.17 | -2.17 ± 0.12 |
| GGUGAGCAAUAUUACGAUCG | -0.341 ± 0.095 | 0.221 ± 0.13 |
| UGGAAGCAAUAUUACGUCGA | -1.02 ± 0.072 | -0.272 ± 0.089 |
| AAGUAGCAAUAUUACGAAGG | -2.75 ± 0.24 | -3.26 ± 0.47 |
| GUAGAGCAAUAUUACGUAUA | -1.7 ± 0.28 | -0.319 ± 0.25 |
| GCCAAGCAAUAUUACGCGAG | -2.43 ± 0.11 | -2 ± 0.17 |
| CUCCAGCAAUAUUACGAAAA | -2.78 ± 0.28 | -1.89 ± 0.3 |
| AUGCAGCAAUAUUACGAGCC | -2.69 ± 0.2 | -0.935 ± 0.18 |
| AAGAAGCAAUAUUACGAGCG | -0.646 ± 0.14 | -0.754 ± 0.2 |
| UCAGAGCAAUAUUACGGUAG | -3.45 ± 0.24 | -2.39 ± 0.27 |
| GACAAGCAAUAUUACGGCUA | -0.175 ± 0.074 | -0.187 ± 0.079 |
| GACAAGCAAUAUUACGCGGG | -2.84 ± 0.095 | -2.52 ± 0.14 |
| CCACAGCAAUAUUACGACUA | -3.08 ± 0.25 | -2.88 ± 0.29 |
| GCCAAGCAAUAUUACGAACU | -1.3 ± 0.18 | -0.873 ± 0.22 |
| UAAAAGCAAUAUUACGAGAC | -2.39 ± 0.28 | -2.29 ± 0.26 |
| CCUUAGCAAUAUUACGUCUA |  | -2.65 ± 0.23 |
| UCAUAGCAAUAUUACGCUCA | -1.82 ± 0.15 | -0.493 ± 0.15 |
| CGUCAGCAAUAUUACGGGGC | -2.73 ± 0.2 | -3.05 ± 0.32 |
| AUCCAGCAAUAUUACGCUCA | 0.0746 ± 0.13 | 0.8 ± 0.17 |
| CGUCAGCAAUAUUACGUACU | -0.663 ± 0.1 | -0.361 ± 0.12 |
